This is an account of results in patent publication US20060228358A1 (UCB, published 2006).

“And” between values parts separate entries of the source, which are not always exact repeats. Equal values may be shown once.

B1: double chimeric IC8 antibody molecule cHcL (antibody, V domains shown)
VH: DVQLVESGGGLVKPGGSLKLSCAASGFDFSRYDMSWVRQTPEKRLEWVAYISSGGGSTYFPDTVKGRFTISRDNAKNTLYLQMNNLQSEDTAMFYCARQNKKLTWFDYWGQGTLVTVSS
VL: DIQMTQSPASLSASVGETVTITCRTSGNIHNYLTWYQQNLGKSPQLLVYNAKTLADGVPSRFSGSGSGTQFSLTINSLQPEDFGNYYCQHFWSLPFTFGSGTKLEIKR
notes: Murine IC8 V-regions on human gamma-4 heavy and human kappa light constant regions (vectors pMRR14 and pMRR10), expressed in CHO-L761 cells
B2: CDR-grafted IC8 antibody gH1gL2 (antibody, V domains shown)
VH: EVQLVESGGGLVQPGGSLRLSCAASGFDFSRYDMSWVRQAPGKRLEWVAYISSGGGSTYFPDTVKGRFTISRDNAKNTLYLQMNSLRAEDTAMYYCARQNKKLTWFDYWGQGTLVTVSS
VL: DIQMTQSPSSLSASVGDRVTITCRTSGNIHNYLTWYQQKPGKAPQLLVYNAKTLADGVPSRFSGSGSGTQFTLTISSLQPEDFANYYCQHFWSLPFTFGQGTKVEIKR
notes: Human gamma-4 heavy and kappa light constant regions (pMRR14 and pMRR10), expressed in CHO-L761 cells
B3: CDR-grafted IC8 antibody gH1gL3 (antibody, V domains shown)
VH: EVQLVESGGGLVQPGGSLRLSCAASGFDFSRYDMSWVRQAPGKRLEWVAYISSGGGSTYFPDTVKGRFTISRDNAKNTLYLQMNSLRAEDTAMYYCARQNKKLTWFDYWGQGTLVTVSS
VL: DIQMTQSPSSLSASVGDRVTITCRTSGNIHNYLTWYQQKPGKAPQLLIYNAKTLADGVPSRFSGSGSGTQFTLTISSLQPEDFANYYCQHFWSLPFTFGQGTKVEIKR
notes: as for B2
B4: CDR-grafted IC8 antibody gH3gL2 (antibody, V domains shown)
VH: EVQLVESGGGLVQPGGSLRLSCAASGFDFSRYDMSWVRQAPGKRLEWVAYISSGGGSTYFPDTVKGRFTISRDNAKNTLYLQMNSLRAEDTAVYYCARQNKKLTWFDYWGQGTLVTVSS
VL: DIQMTQSPSSLSASVGDRVTITCRTSGNIHNYLTWYQQKPGKAPQLLVYNAKTLADGVPSRFSGSGSGTQFTLTISSLQPEDFANYYCQHFWSLPFTFGQGTKVEIKR
notes: as for B2
B5: CDR-grafted IC8 antibody gH2gL3 (antibody, V domains shown)
VH: EVQLVESGGGLVQPGGSLRLSCAASGFDFSRYDMSWVRQAPGKGLEWVAYISSGGGSTYFPDTVKGRFTISRDNAKNTLYLQMNSLRAEDTAMYYCARQNKKLTWFDYWGQGTLVTVSS
VL: DIQMTQSPSSLSASVGDRVTITCRTSGNIHNYLTWYQQKPGKAPQLLIYNAKTLADGVPSRFSGSGSGTQFTLTISSLQPEDFANYYCQHFWSLPFTFGQGTKVEIKR
notes: as for B2
B6: CDR-grafted IC8 antibody gH3gL1 (antibody, V domains shown)
VH: EVQLVESGGGLVQPGGSLRLSCAASGFDFSRYDMSWVRQAPGKRLEWVAYISSGGGSTYFPDTVKGRFTISRDNAKNTLYLQMNSLRAEDTAVYYCARQNKKLTWFDYWGQGTLVTVSS
VL: DIQMTQSPSSLSASVGDRVTITCRTSGNIHNYLTWYQQKLGKAPQLLVYNAKTLADGVPSRFSGSGSGTQFTLTISSLQPEDFANYYCQHFWSLPFTFGQGTKVEIKR
notes: as for B2
B7: CDR-grafted IC8 antibody gH3gL3 (antibody, V domains shown)
VH: EVQLVESGGGLVQPGGSLRLSCAASGFDFSRYDMSWVRQAPGKRLEWVAYISSGGGSTYFPDTVKGRFTISRDNAKNTLYLQMNSLRAEDTAVYYCARQNKKLTWFDYWGQGTLVTVSS
VL: DIQMTQSPSSLSASVGDRVTITCRTSGNIHNYLTWYQQKPGKAPQLLIYNAKTLADGVPSRFSGSGSGTQFTLTISSLQPEDFANYYCQHFWSLPFTFGQGTKVEIKR
notes: Human gamma-4 heavy and kappa light constant regions (pMRR14 and pMRR10), expressed in CHO-L761 cells; also called gL3gH3
B8: CDR-grafted IC8 antibody gH1gL1 (antibody, V domains shown)
VH: EVQLVESGGGLVQPGGSLRLSCAASGFDFSRYDMSWVRQAPGKRLEWVAYISSGGGSTYFPDTVKGRFTISRDNAKNTLYLQMNSLRAEDTAMYYCARQNKKLTWFDYWGQGTLVTVSS
VL: DIQMTQSPSSLSASVGDRVTITCRTSGNIHNYLTWYQQKLGKAPQLLVYNAKTLADGVPSRFSGSGSGTQFTLTISSLQPEDFANYYCQHFWSLPFTFGQGTKVEIKR
notes: as for B2
B9: CDR-grafted IC8 antibody gH2gL1 (antibody, V domains shown)
VH: EVQLVESGGGLVQPGGSLRLSCAASGFDFSRYDMSWVRQAPGKGLEWVAYISSGGGSTYFPDTVKGRFTISRDNAKNTLYLQMNSLRAEDTAMYYCARQNKKLTWFDYWGQGTLVTVSS
VL: DIQMTQSPSSLSASVGDRVTITCRTSGNIHNYLTWYQQKLGKAPQLLVYNAKTLADGVPSRFSGSGSGTQFTLTISSLQPEDFANYYCQHFWSLPFTFGQGTKVEIKR
notes: as for B2
B10: murine monoclonal antibody IC8 (antibody, V domains shown)
VH: DVQLVESGGGLVKPGGSLKLSCAASGFDFSRYDMSWVRQTPEKRLEWVAYISSGGGSTYFPDTVKGRFTISRDNAKNTLYLQMNNLQSEDTAMFYCARQNKKLTWFDYWGQGTLVTVSS
VL: DIQMTQSPASLSASVGETVTITCRTSGNIHNYLTWYQQNLGKSPQLLVYNAKTLADGVPSRFSGSGSGTQFSLTINSLQPEDFGNYYCQHFWSLPFTFGSGTKLEIKR
notes: Mouse monoclonal antibody from a hybridoma; also called mIC8; donor antibody
B11: gH3gL3 Fab′ (E. coli-produced) (Fab, V domains shown)
VH: EVQLVESGGGLVQPGGSLRLSCAASGFDFSRYDMSWVRQAPGKRLEWVAYISSGGGSTYFPDTVKGRFTISRDNAKNTLYLQMNSLRAEDTAVYYCARQNKKLTWFDYWGQGTLVTVSS
VL: DIQMTQSPSSLSASVGDRVTITCRTSGNIHNYLTWYQQKPGKAPQLLIYNAKTLADGVPSRFSGSGSGTQFTLTISSLQPEDFANYYCQHFWSLPFTFGQGTKVEIKR
notes: Unpegylated Fab′ with a modified hinge, purified from E. coli periplasm; also called gIC8 Fab′; IC8gL3gH3 Fab′

One assay has as its target T1, recombinant human IL-1β (human, UniProt P01584 117-269).
T1 construct: Only the background speaks of the mature 17 kDa form; also called hIL-1β; interleukin-1β
The assay can be described thus: BIAcore, antibody captured by anti-hFc, IL-1β titrated in solution, 25 °C. As for the experimental part:
The assay format used anti-IL-1β antibody captured by anti-hFc with a titration of recombinant human IL-1β in the solution phase. Mouse anti-human IgG, Fc fragment-specific (Celltech) was immobilised on flowcell 2 of a CM5 Sensor Chip via amine coupling chemistry to a level of 12757RU. A blocked reference surface was prepared on flowcell 1 by activation with EDC/NHS and deactivation with ethanolamine using the same volumes as for flowcell 2. HBS-EP buffer (10 mM HEPES pH 7.4, 0.15 M NaCl, 3 mM EDTA, 0.005% Surfactant P20, Biacore AB) was used as the running buffer and assays were performed at 25° C. Anti-IL-1β antibody was passed over flowcells 1 and 2 and captured on the immobilised anti-hFc surface using a flowrate of 10 μl/min. IL-1β from 400-0 nM was injected over the blocked and captured anti-IL-1β antibody surface using a flowrate of 30 μl/min for 3 min. The anti-hFc surface was regenerated with a 30 μl injection of 40 mM HCl. Kinetic parameters were calculated using BIAevaluation 3.1 software.
In general terms: Surface plasmon resonance follows binding to a sensor surface in real time, without labels.
Consider B1, for which the Kd worked out at 0.38 nM. Same read-out and setting: the result for B2 reads 0.34 nM; that for B3, 0.3 nM; that for B4, 0.32 nM. The same measure, in the same setting: as for B5, the figure is 1.14 nM and 1.07 nM. Same read-out and setting: the result for B6 reads 0.28 nM; that for B7, 0.28 nM.

Turning to B8, the Kd was 0.35 nM. Same read-out and setting: the result for B9 reads 1.27 nM.

The target in another assay is T1, recombinant human IL-1β. In words: BIAcore, captured antibody, IL-1β titrated in solution, 25 °C.
For B10, the Kd stood at 0.3 nM.

Another assay deals with T1, recombinant human IL-1β. In words: BIAcore, Fab′ captured by anti-hF(ab′)2, IL-1β titrated in solution, 25 °C. As for the experimental part: Affinipure goat anti-human IgG, F(ab′)₂ fragment-specific (Jackson ImmunoResearch Code 109-005-097) was immobilised on flowcell 2 of a CM5 Sensor Chip via amine coupling chemistry to a level of 13025RU. A blocked reference surface was prepared on flowcell 1 by activation with EDC/NHS and deactivation with ethanolaomine using the same volumes as for flowcell 2. HBS-EP buffer (10 mM HEPES pH 7.4, 0.15 M NaCl, 3 mM EDTA, 0.005% Surfactant P20, Biacore AB) was used as the running buffer and assays were performed at 25° C. Anti-IL-1β antibody was passed over flowcells 1 and 2 and captured on the immobilised anti-hF(ab′)₂ surface using a flowrate of 10 μl/min. IL-1β (Strathmann) from 400-0 nM was injected over the blocked and captured anti-IL-1β antibody surface using a flowrate of 30 μl/min for 3 min. The anti-hF(ab′)₂ surface was regenerated with a 30 μl injection of 40 mM HCl followed by a 15 μl injection of 5 mM NaOH. Kinetic parameters were calculated using BIAevalutation 3.1 software.
In the case of B11, the Kd was determined as 0.32 nM.

The Kd is a measure of binding affinity in units of concentration.
